Results taken from the domain aggregation screens of Martell et al. (2025).

Test: soluble fraction after stress (log2 fold change); higher = more stays soluble; pooled small domains, quantitative proteomics
Conditions: stress: pH 4
Procedure, shortened: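 Following acid stress at pH 4, the amount of each small protein domain still soluble was measured in pooled custom libraries by high-throughput quantitative proteomics. Its fold change, on a log2 scale, is higher when more of the domain stayed soluble. This fold change is taken as a measure of aggregation propensity.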

Row | Sequence | soluble fraction (log2)
1 | HMEAEVIKTASDMADRNGLHNVSLKAIAENLGIRTPSLYNHIGSLDELLREIAHSGMRTMNE | -0.247
2 | HMEAFAEAVASMLRKLQPEFAIDLVGPRELLVNGRRLDLENLYRMVNHEPVRGQEIVEHYLDQLFAG | -0.665
3 | HMEAGLRMPEQLTAFSALALLQKVRDSGPLTDAQKEQLDADVLRIEASHFGKADREALELEEILKQWLSRV | -0.889
4 | HMEAKSSTKALLDVVLGRNGVSTANVAKSLNISVQNASTRLKKLSSEGVIMRSEVSSPTGGIEFIYS | 0.22
5 | HMEAKTSNPDYHARLGLTEGEGNDSALGVSVKAAEGGFGLLFGNKVGSDQLVRFANEDQVWLVNRALS | 0.0693
6 | HMEALNIEQKKVEIINVLLEKGKGKGRLSYKEISDQIDTVELDKDQMDELYETLMTNGIEIV | -1.43
7 | HMEALPSNLRRLRLEAQLTLDRLGALSGVSRAMISKIERGASVPTATMLGKLAAALQVSLSQLL | -0.263
8 | HMEAMITEVKRINYGLISDISKSLDPFKSEGGHIIVDKRTNTFILTDLRANIEKMLWSIEIMD | -0.248
9 | HMEAPNELLVPEGARPARADRVLAAAFPEHSRTALQRAFDAGLVRRANLVLSRDTAVAGGDRIAFSLPAV | 0.0302
10 | HMEARYQLREVSLDGLRSGMILNADVLSTDGVLMARKGLEVSGLLRSRLEAFAKMERIEPTFKVLVPIAPP | 0.284
11 | HMEASSTAIQAMIRRLIDDENPRKPLSDAKLADLLKSSGIPVARRTVAKYREAMNISASHERVRI | 0.17
12 | HMEATEFYLEDLTGQMYNDVVNDEKYAGKIVFEKEEVQSDGEEAIGQILNQRPAGNMNVRIGTTVTLVVNA | -0.201
13 | HMEATVGSRVRLARIGLTLTQKQLAQAVGVSANHLAMVERGSKHASEDLLQRIATATHTTYEWLMGTSEHQ | 0.174
14 | HMEAVIENAAIIKQNSGGYAVRATVNGVDLGMKPVERATALLYFSLTDKLEKDRLLSHTLQKTYGDLSA | -0.213
15 | HMEAYLPVTVVSDGKILTGNLEKAGKNEKWLENVLSELKTDVKNTLLLTVDPKDGLIFYPKG | 0.0447
16 | HMEAYMVPNVKNKTLNEAQQALSNQKLKGLVIDSSYVKGVPDGMVLDQNPAGGARVKEGRTIYLTVTTS | 0.259
17 | HMEDADERRALEVLNQLLDLPEREQEAALAALSLPPALARRVRSLLSVQTRAADLFDTAPSP | -0.6
18 | HMEDAFLQRLISIIEANLSNVDFNVKMLAEQLNMSQPTLYRKVKQRSELSVIDMIRSIRILSLIHISEPTR | -0.919
19 | HMEDDRLIQNLLLTAKNLVMDVGRMDESALAENEDTVRTAMLFALGYLYENRSNPDYHKLTLNLRSILFA | -0.807
20 | HMEDEISLGAINVPRGSVIVTAGGARLVEGSDYTVDYYSGTVKILNKSLLDAGTPINVSLET | -0.0859
21 | HMEDETAKVLRLLAENNGYLPYNDKSDPTDIYAFFGMSKKAFKMTTGNLYKQKKIQFTQTGIQLIE | -0.16
22 | HMEDEVSSSAAYQALLEKGVSKTLARSWVIDYGEAYVLDKVDLTTSQAARGKIKSSTAGFLKAAIEEDFHN | -0.765
23 | HMEDGEALARAVASLPGKYREVLFLKYSHGYSVDEIALILSMSKENVKKTIQRARKKLEQLLESE | -0.507
24 | HMEDGEVTVPDLRGLTIKEAGTILEKLGLHLSPVGTGLAVRQDVAPGSKVARDTTITVEFEPPDIQVLR | -0.259
25 | HMEDIKHVVANNIKKYRKEERLTLQQLSYLTGVSKTMLNQIETEKSSPSITILWRISSGLKIPLSKLISSP | 0.143
26 | HMEDIPENIRYKFLLKELKENEHLNILDKENIARKLTEIDLPELEKELLENEILNSTIKDYLGIKLV | -0.912

Row | Sequence | soluble fraction (log2)
27 | HMEDKFEYQGELKSLIEPTSFSELVSALNVRDTLQAIIDFAMREEDTSGYEELKVRQNDYIQEYLNSIGNF | -1.28
28 | HMEDKFEYQGERKSLIYPTSFSELTEALGVRNMLQSIIDFATRDEDTSGYEEMKERQNEYIQEYL | 0.0125
29 | HMEDKKQVLYELITDKSYRPLRFKELAVLLMVPKALRGELKQTLDELIKEGKITVDSSSRYRAA | 0.276
30 | HMEDLDKIISAYLDENPQIVSDYGKGNKKAVNSAIGFVMKSTGGKYSSSDIVDAVRSMIVSISV | -0.254
31 | HMEDNYYENKINYLFGYLDEADKEISVNSILDFHLAHRTNPEFVFEPKKNTNPLIWKYLSNSNLLY | 0.0187
32 | HMEDPLGDLIGRIAAATGRPVQDIVAEVHRVVTDHFDGNLRVEAAAVILARKYGVAFEDKLSALQRSV | -0.559
33 | HMEDSAKRHQIMDGARRVFMDLGFDGASMNEIARAAGVSKGTLYVYFTDKNRLFEAIVEQESL | -1.15
34 | HMEDSEYDRLLAEIDEGIRKAIETLEPVELSPQNARVRRIQHQIIEKYQLHSDSVGEEPYRRVRIL | -1.03
35 | HMEDSHIYPVSFNGKMRFKLELPVSMNKKEIEEVVLQHEDAQKWLNGQNPKKVIVVPKRIINIV | 0.308
36 | HMEDTVNVPIQINGKLRHVIQVQIGTSEEEIQKIALSEEQVKKFTDGHEILKVMVPKGKLVSIVI | -0.126
37 | HMEDVLVTQIIQLKHVDANDMKTLFTPLLSRGSSQLLAYPQSNVLIITDTRSNIKKITEILDIIDKS | -0.838
38 | HMEDVRSLTGPEKAAIILLSLGEEHGQGVWRMFDDEEVKEVSQIMANLGTISASVVEKLLVEFVSQMST | -1.5
39 | HMEDYYKILGVQSNSNPDDIKKAYRKLSLKHHPDRGGDASEFKKINEAYQTLGTPEKRKMYDMQQNN | ≥ 0.43
40 | HMEEEPALLRDLLAKTLEFGLIPQLSHHPALADRTQQLASAVRAAGSASALRNAAASLKSLWIDVDQ | -0.617
41 | HMEEFDLNAYITKINSAATLNALKQAYAEANSAALSVKDKDAQRKIIVEKDKRKAELIQETAG | 0.313
42 | HMEEIALTDILNRFLSSLSLEQRKIFMRRYWYLSPIKEIATEYGMSESKIKMSLFRSRNELKKLLEKEGI | -0.406
43 | HMEEINTAPVFKNIIEIAEYAKTKFTTVEEIPKMIEFIETANSKLDNPHDEESVNELINALSTNIRKNV | -0.554
44 | HMEEITLIAEDEGLRLDTWLTDKLKDYSRSYIQKLMEDELVLVNGKARKANYRIKTGDEIHVSIPEPE | -0.507
45 | HMEELLVAVKADGSIWADGRPITPDGLASFIDSKPADAVLNLAVDKKAPFAAFVKVVDVAKEKKSGRFVIR | -0.141
46 | HMEELPIIVAQRFLNIFRQLHIFSDERREAFNKMLLELPPEVKSIFQSLPGGTPLQEYMEDLEQKSK | -0.262
47 | HMEELTPLQKYVFDYESDISDEVDMRAIKGLENANDVYDYYANVRGWEGDPDLEDDLDNIYRQVKARFA | -1.2
48 | HMEEMTIRQKRTMIFFIEATKHILQEDGYDHLTIREIAQRAGYNAATLYHYFRDLDELIIYGSVG | -0.602
49 | HMEEPEELYRVKILIYNLLVRNGPGILYTRLRRADYPGEYGIYEEKNGYGKISATLSEWISLNTEYVQRLD | -0.378
50 | HMEEVYVPDIRDKSISDAKKILSQMGLKYRIEGEGYDDSTVIKDQTPKPGALLAKDSVVIAYINE | -0.0728
51 | HMEEYLENLTQSKLLHMLDQLSPAYKTVFTLFVLDELSHEEISKMLNISIGTSKSNLFRARKVMRVLMESE | -0.283
52 | HMEFDIDAAIHAALEPQAVMRAWFGHEGREYPEDFGVVFFRGWESFTHQEKVEAVRDAKKVLDRAVR | -1.17

Row | Sequence | soluble fraction (log2)
53 | HMEFDSLINYEVKKKETLFSISKKFKIEINDLLSFNTELKNNKLKKNSIIIIPLKKKIVESQNFEKQKIID | -0.719
54 | HMEFENIEQRKQYWSDLYRELKAGQDAYAKELKKGTEGYTQDELDILKEFTDEAKKQMEAAGVEATDEFAS | -0.176
55 | HMEFLLAIQPFVLLTDHANLTFLREQTDSMMKRIQINISGFEIEFRYVPGLTNILPDKMSRV | -0.199
56 | HMEFQEQLYRLRKQAGLSQEELSHIIGVSRQAVQKWEAGSARPDLDNLIALASHFKLSLDQLVGLT | -0.125
57 | HMEFQSIGGKIRIGREREHLTQAELAQKLSVTRQAVSNWERDKTLPDIYMIREIAEIFGLTLDEFMEGAKK | 0.0806
58 | HMEGDAFAFTGDIQKDLLSITAVHPMRREAVDALIAKAGASWAIVEKLLAHGELTEAKHDGHLFYLRKF | -0.354
59 | HMEGIAEILPASVRQKYGLIGLYDALRGLHFPGNMEEIKAARQRLAFEDTLMFSLTLSMMQYS | -0.0837
60 | HMEGIAYDINTAPEHIDLKAEDMMATFNIGKTALWRWVKQKILPPPYEYRSQAAHWTIGQIRDWKTA | -0.417
61 | HMEGLDDKTKIILFAGDKKEQEYSLADLKSKLNITENLTESELIKLLEKQGYVLDVNANNEFMFKKD | 0.22
62 | HMEGNFFADIRQELMRELDQEAEWSDVQILEKIDDLVLLRTRRSSLTVNEKEQLRKELFYSVRK | -0.394
63 | HMEGRTVMATTAVNVRSGPGTSYKILGVLYPGHTAQQIGNTRYGWAQVTWKGHTAYIAARYLRDS | 0.301
64 | HMEGSLQEDKVKEYQDRFKEELSNDLNTANSITVLYDLIKDDTLNGTTKRYLIEDFDKILSLDLIKE | -0.854
65 | HMEGSVTVMVNGESVTMTGKQNYIFVDVFDWYSFDLSAGKGRAIATLVNGKEAEFSQPLANGDNIELYWKE | -1.42
66 | HMEGTAAAVALKGLMEQSGVDLREVMAAVESRGYYPKGTPFENYDPAFVSGVLVGAWDQVYKMILDQRPIP | -1.1
67 | HMEGVSPQTVQEHIRRFIAAEDPASPLSDEALREALGNLGINASRRTVAKYRGEMGIPSSAQRKR | 0.00892
68 | HMEGVSSESVKEMLKSIIDGEDPHNPVSDQRITDILNSRGINISRRTVAKYRDELGIASSSRRKRY | 0.112
69 | HMEGYLYLSESQNELILKNLKTPLKYNLYNASGKLIKKGNIKNTLDISELPKGVYIFTSSDNSFSKKFLKT | 0.276
70 | HMEHAETDTRERILVVAERLFRQLGYQKTTVADIAKELRMSPANVYRFFDSKKSIHEGVARTL | 0.275
71 | HMEHETTQLELNAPGQRLDAALALALPDTSRAQIQQWIKQGLVTDQAGTALLQASLKLKSPLNVVLQRPI | 0.0662
72 | HMEHIDVSGRAFDVSVSRLKRARRLTMRIDTHKQLVKISAPLHVESSTIRAFLARNQNWLEQQVEKR | 0.199
73 | HMEHLTATERHLVAYLEAHLGQVPSLSITKLSQEANVSTASIVRTMKKLGYDGFTAFKHAIKQQLR | 0.156
74 | HMEHTPHGVALLRTLMDQYGLKAADLANELGSKSNVSNILNGRRALTVSHIKMLAERFNLPADAFI | -0.137
75 | HMEIALNDKQILLFSNKLVHEPSFASKYSKVGESYDDFAIRISENLTIPDKVQEYLPYLEKVGFNI | -0.191
76 | HMEIDDPWLILGINAGSSIEIAQKAWKDLASQNHPDKLIANGVPKELLGMANEKLAIINGAYDKILKAHKI | -0.792
